Starred links: 1 amine or outer side, 2 acyl side, 3 side chain; linkers in the order of their positions; H or OH if unused. Non-standard residues stand in square brackets, D forms with d. Groups on a side chain read outwards from the residue. Primed or numbered codes have the meaning given here. No end group written: not given here. *: point of attachment. γGlu = O=C(O)[C@H](CCC(=O)[*:2])N[*:1]; Stearoyl = CCCCCCCCCCCCCCCCCC(=O)*; αMeF = C[C@](N)(Cc1ccccc1)C(=O)O; αMeK = C[C@](N)(CCCCN)C(=O)O; αMeS = C[C@](N)(CO)C(=O)O; PEG2′ = not defined here; Aib = CC(C)(N)C(=O)O; Ahx = NCCCCCC(=O)O
T1: glucose-dependent insulinotropic peptide (gastric inhibitory polypeptide) receptor (GIPR) (human, UniProt P48546 22-466)
T1 sequence (looked up): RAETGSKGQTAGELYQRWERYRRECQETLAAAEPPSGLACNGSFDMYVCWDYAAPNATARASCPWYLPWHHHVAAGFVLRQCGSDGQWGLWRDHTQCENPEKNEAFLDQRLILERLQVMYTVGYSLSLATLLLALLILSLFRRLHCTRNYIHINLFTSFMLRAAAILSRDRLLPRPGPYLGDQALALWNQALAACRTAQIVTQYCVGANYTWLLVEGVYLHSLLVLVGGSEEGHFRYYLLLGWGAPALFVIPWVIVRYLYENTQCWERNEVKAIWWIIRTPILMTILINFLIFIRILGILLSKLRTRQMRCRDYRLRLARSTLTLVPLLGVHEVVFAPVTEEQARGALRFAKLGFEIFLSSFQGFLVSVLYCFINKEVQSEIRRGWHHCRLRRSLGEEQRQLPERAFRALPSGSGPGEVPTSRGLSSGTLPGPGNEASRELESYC


What was measured:
Test in all cases: cell-based or functional assay
[1] = target: GLP-1 receptor (GLP-1R) (human, UniProt P43220 24-463)
[2] = target: T1, glucose-dependent insulinotropic …
[3] = target: glucagon receptor (GCGR) (human, UniProt P47871 26-477)
Sequence of glucagon receptor (GCGR) (P47871 26-477): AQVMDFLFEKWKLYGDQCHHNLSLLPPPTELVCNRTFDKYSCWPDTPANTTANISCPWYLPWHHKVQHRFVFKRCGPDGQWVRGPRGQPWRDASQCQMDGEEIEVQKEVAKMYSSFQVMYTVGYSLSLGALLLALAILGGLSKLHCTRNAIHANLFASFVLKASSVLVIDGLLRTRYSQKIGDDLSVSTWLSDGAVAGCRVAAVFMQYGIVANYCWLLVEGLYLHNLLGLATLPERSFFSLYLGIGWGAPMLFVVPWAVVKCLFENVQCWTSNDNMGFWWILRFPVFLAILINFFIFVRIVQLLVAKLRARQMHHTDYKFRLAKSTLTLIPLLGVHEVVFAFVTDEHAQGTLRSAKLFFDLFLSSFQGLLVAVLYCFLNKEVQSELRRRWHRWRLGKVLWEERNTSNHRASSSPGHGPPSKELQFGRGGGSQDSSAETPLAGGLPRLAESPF

Binder	Primary assay EC50 (cAMP), GLP-1R n1 [1] [nM]	Primary assay EC50 (cAMP), GLP-1R n2 [1] [nM]	Primary assay EC50 (cAMP), Mean pM GLP-1R [1] [pM]	Primary assay EC50 (cAMP), GIP-R, first run [2] [nM]	Primary assay EC50 (cAMP), GIP-R, second run [2] [nM]	Primary assay EC50 (cAMP), Gluc-R, first run [3] [nM]	Primary assay EC50 (cAMP), Gluc-R, second run [3] [nM]
H[Aib]EGS[αMeF]TSDV[αMeS]S[αMeF]LEGEAA[αMeK]E[αMeF]IA[αMeF]VVK([γGlu-γGlu-Stearoyl])GG-NH2 (N-terminus assumed; SMILES CCCCCCCCCCCCCCCCCC(=O)N[C@@H](CCC(=O)N[C@@H](CCC(=O)NCCCC[C@H](NC(=O)[C@@H](NC(=O)[C@@H](NC(=O)[C@](C)(Cc1ccccc1)NC(=O)[C@H](C)NC(=O)[C@@H](NC(=O)[C@](C)(Cc1ccccc1)NC(=O)[C@H](CCC(=O)O)NC(=O)[C@](C)(CCCCN)NC(=O)[C@H](C)NC(=O)[C@H](C)NC(=O)[C@H](CCC(=O)O)NC(=O)CNC(=O)[C@H](CCC(=O)O)NC(=O)[C@H](CC(C)C)NC(=O)[C@](C)(Cc1ccccc1)NC(=O)[C@H](CO)NC(=O)[C@](C)(CO)NC(=O)[C@@H](NC(=O)[C@H](CC(=O)O)NC(=O)[C@H](CO)NC(=O)[C@@H](NC(=O)[C@](C)(Cc1ccccc1)NC(=O)[C@H](CO)NC(=O)CNC(=O)[C@H](CCC(=O)O)NC(=O)C(C)(C)NC(=O)[C@@H](N)Cc1c[nH]cn1)[C@@H](C)O)C(C)C)[C@@H](C)CC)C(C)C)C(C)C)C(=O)NCC(=O)NCC(N)=O)C(=O)O)C(=O)O) [SEQ ID NO 183]	0.064	0.018	40.9	27	27	27	27
H[Aib]EGS[αMeF]TSDV[αMeS]S[αMeF]LEGEAA[αMeK]E[αMeF]IA[αMeF]VVK([Ahx-Ahx-Stearoyl])GG-NH2 (N-terminus assumed; SMILES CCCCCCCCCCCCCCCCCC(=O)NCCCCCC(=O)NCCCCCC(=O)NCCCC[C@H](NC(=O)[C@@H](NC(=O)[C@@H](NC(=O)[C@](C)(Cc1ccccc1)NC(=O)[C@H](C)NC(=O)[C@@H](NC(=O)[C@](C)(Cc1ccccc1)NC(=O)[C@H](CCC(=O)O)NC(=O)[C@](C)(CCCCN)NC(=O)[C@H](C)NC(=O)[C@H](C)NC(=O)[C@H](CCC(=O)O)NC(=O)CNC(=O)[C@H](CCC(=O)O)NC(=O)[C@H](CC(C)C)NC(=O)[C@](C)(Cc1ccccc1)NC(=O)[C@H](CO)NC(=O)[C@](C)(CO)NC(=O)[C@@H](NC(=O)[C@H](CC(=O)O)NC(=O)[C@H](CO)NC(=O)[C@@H](NC(=O)[C@](C)(Cc1ccccc1)NC(=O)[C@H](CO)NC(=O)CNC(=O)[C@H](CCC(=O)O)NC(=O)C(C)(C)NC(=O)[C@@H](N)Cc1c[nH]cn1)[C@@H](C)O)C(C)C)[C@@H](C)CC)C(C)C)C(C)C)C(=O)NCC(=O)NCC(N)=O) [SEQ ID NO 186]	0.13	0.05	87.5	27	27	27	27
H[Aib]EGS[αMeF]TSDV[αMeS]S[αMeF]LEGEAA[αMeK]E[αMeF]IA[αMeF]VVK([PEG2′-PEG2′-PEG2′-Stearoyl])GG-NH2 [SEQ ID NO 190]	0.0097	0.0047	7.2	26	26	26	26
H[Aib]EGS[αMeF]TSDV[αMeS]S[αMeF]LEGEAA[αMeK]E[αMeF]IA[αMeF]VVK([Ahx-Stearoyl])GG-NH2 (N-terminus assumed; SMILES CCCCCCCCCCCCCCCCCC(=O)NCCCCCC(=O)NCCCC[C@H](NC(=O)[C@@H](NC(=O)[C@@H](NC(=O)[C@](C)(Cc1ccccc1)NC(=O)[C@H](C)NC(=O)[C@@H](NC(=O)[C@](C)(Cc1ccccc1)NC(=O)[C@H](CCC(=O)O)NC(=O)[C@](C)(CCCCN)NC(=O)[C@H](C)NC(=O)[C@H](C)NC(=O)[C@H](CCC(=O)O)NC(=O)CNC(=O)[C@H](CCC(=O)O)NC(=O)[C@H](CC(C)C)NC(=O)[C@](C)(Cc1ccccc1)NC(=O)[C@H](CO)NC(=O)[C@](C)(CO)NC(=O)[C@@H](NC(=O)[C@H](CC(=O)O)NC(=O)[C@H](CO)NC(=O)[C@@H](NC(=O)[C@](C)(Cc1ccccc1)NC(=O)[C@H](CO)NC(=O)CNC(=O)[C@H](CCC(=O)O)NC(=O)C(C)(C)NC(=O)[C@@H](N)Cc1c[nH]cn1)[C@@H](C)O)C(C)C)[C@@H](C)CC)C(C)C)C(C)C)C(=O)NCC(=O)NCC(N)=O) [SEQ ID NO 185]	0.38	0.12	251	28	28	28	28
H[Aib]EGS[αMeF]TSDV[αMeS]S[αMeF]LEGEAA[αMeK]E[αMeF]IA[αMeF]VVK([PEG2′-PEG2′-Stearoyl])GG-NH2 [SEQ ID NO 189]	0.03	0.012	20.8	27	27	27	27
H[Aib]EGS[αMeF]TSDV[αMeS]S[αMeF]LEGEAA[αMeK]E[αMeF]IA[αMeF]VVK([PEG2′-Stearoyl])GG-NH2 [SEQ ID NO 188]	0.17	0.077	125	28	28	28	28
H[Aib]EGS[αMeF]TSDV[αMeS]S[αMeF]LEGEAA[αMeK]E[αMeF]IA[αMeF]VVK([Ahx-Ahx-Ahx-Stearoyl])GG-NH2 (N-terminus assumed; SMILES CCCCCCCCCCCCCCCCCC(=O)NCCCCCC(=O)NCCCCCC(=O)NCCCCCC(=O)NCCCC[C@H](NC(=O)[C@@H](NC(=O)[C@@H](NC(=O)[C@](C)(Cc1ccccc1)NC(=O)[C@H](C)NC(=O)[C@@H](NC(=O)[C@](C)(Cc1ccccc1)NC(=O)[C@H](CCC(=O)O)NC(=O)[C@](C)(CCCCN)NC(=O)[C@H](C)NC(=O)[C@H](C)NC(=O)[C@H](CCC(=O)O)NC(=O)CNC(=O)[C@H](CCC(=O)O)NC(=O)[C@H](CC(C)C)NC(=O)[C@](C)(Cc1ccccc1)NC(=O)[C@H](CO)NC(=O)[C@](C)(CO)NC(=O)[C@@H](NC(=O)[C@H](CC(=O)O)NC(=O)[C@H](CO)NC(=O)[C@@H](NC(=O)[C@](C)(Cc1ccccc1)NC(=O)[C@H](CO)NC(=O)CNC(=O)[C@H](CCC(=O)O)NC(=O)C(C)(C)NC(=O)[C@@H](N)Cc1c[nH]cn1)[C@@H](C)O)C(C)C)[C@@H](C)CC)C(C)C)C(C)C)C(=O)NCC(=O)NCC(N)=O) [SEQ ID NO 187]	0.064	0.031	47.4	26	26	26	26
H[Aib]EGS[αMeF]TSDV[αMeS]S[αMeF]LEGEAA[αMeK]E[αMeF]IA[αMeF]VVK([γGlu-γGlu-γGlu-Stearoyl])GG-NH2 (N-terminus assumed; SMILES CCCCCCCCCCCCCCCCCC(=O)N[C@@H](CCC(=O)N[C@@H](CCC(=O)N[C@@H](CCC(=O)NCCCC[C@H](NC(=O)[C@@H](NC(=O)[C@@H](NC(=O)[C@](C)(Cc1ccccc1)NC(=O)[C@H](C)NC(=O)[C@@H](NC(=O)[C@](C)(Cc1ccccc1)NC(=O)[C@H](CCC(=O)O)NC(=O)[C@](C)(CCCCN)NC(=O)[C@H](C)NC(=O)[C@H](C)NC(=O)[C@H](CCC(=O)O)NC(=O)CNC(=O)[C@H](CCC(=O)O)NC(=O)[C@H](CC(C)C)NC(=O)[C@](C)(Cc1ccccc1)NC(=O)[C@H](CO)NC(=O)[C@](C)(CO)NC(=O)[C@@H](NC(=O)[C@H](CC(=O)O)NC(=O)[C@H](CO)NC(=O)[C@@H](NC(=O)[C@](C)(Cc1ccccc1)NC(=O)[C@H](CO)NC(=O)CNC(=O)[C@H](CCC(=O)O)NC(=O)C(C)(C)NC(=O)[C@@H](N)Cc1c[nH]cn1)[C@@H](C)O)C(C)C)[C@@H](C)CC)C(C)C)C(C)C)C(=O)NCC(=O)NCC(N)=O)C(=O)O)C(=O)O)C(=O)O) [SEQ ID NO 184]	0.047	0.012	29.5	26	26	26	26

From patent US20200079833A1 (AstraZeneca / MedImmune, published 2020)
